# Assay results taken from publication PMC4260256, “A novel serine hydroxymethyltransferase from Arthrobacter nicotianae: characterization and improving catalytic efficiency by rational design” (BMC Biotechnology, 2014).
# Tested on: NC(C(=O)O)C(O)c1ccccc1
# Test: purified protein
# Conditions: pH 7.8; 40.0 °C
substance,measurement,value
AnSHMT (Glutamicibacter nicotianae; I249L),Km,61.95 ± 0.13 mM
same,kcat/Km,76.8 M⁻¹ s⁻¹
